Results: patent US20040180417

T1: 20 aa synthetic peptide spanning the β-secretase cleavage site of βAPPSW
T1 chain: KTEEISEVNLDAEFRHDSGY

T2: PC cleavage site-spanning peptide of proBACE
T2 chain: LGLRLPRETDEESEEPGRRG

B1: PACE4 (protein)
chain: QVRSDPQALYFNDPIWSNMWYLHCGDKNSRCRSEMNVQAAWKRGYTGKNVVVTILDDGIERNHPDLAPNYDSYASYDVNGNDYDPSPRYDASNENKHGTRCAGEVAASANNSYCIVGIAYNAKIGGIRMLDGDVTDVVEAKSLGIRPNYIDIYSASWGPDDDGKTVDGPGRLAKQAFEYGIKKGRQGLGSIFVWASGNGGREGDYCSCDGYTNSIYTISVSSATENGYKPWYLEECASTLATTYSSGAFYERKIVTTDLRQRCTDGHTGTSVSAPMVAGIIALALEANSQLTWRDVQHLLVKTSRPAHLKASDWKVNGAGHKVSHFYGFGLVDAEALVVEAKKWTAVPSQHMCVAASDKRPRSIPLVQVLRTTALTSACAEHSDQRVVYLEHVVVRTSISHPRRGDLQIYLVSPSGTKSQLLAKRLLDLSNEGFTNWEFMTVHCWGEKAEGQWTLEIQDLPSQVRNPEKQGKLKEWSLILYGTAEHPYHTFSAHQSRSRMLELSAPELEPPKAALSPSQVEVPEDEEDYTAQSTPGSANILQTSVCHPECGDKGCDGPNADQCLNCVHFSLGSVKTSRKCVSVCPLGYFGDTAARRCRRCHKGCETCSSRAATQCLSCRRGFYHHQEMNTCVTLCPAGFYADESQKNCLKCHPSCKKCVDEPEKCTVCKEGFSLARGSCIPDCEPGTYFDSELIRCGECHHTCGTCVGPGREECIHCAKNFHFHDWKCVPACGEGFYPEEMPGLPHKVCRRCDENCLSCAGSSRNCSRCKTGFTQLGTSCITNHTCSNADETFCEMVKSNRLCERKLFIQFCCRTCLLAG
B2: [proBACES]FG/V5, doubly tagged soluble form of mouse proBACE (protein)
chain: DYKDDDDKQGTHLGIRLPLRSGLAGPPLGLRLPRETDEESEEPGRRGSFVEMVDNLRGKSGQGYYVEMTRGQPLTKLNILVDTGSSNFAVGAAPHPFLHRYYQRQLSSTYRDLRKGVYVPYTQGKWEGELGTDLVSIPHGPNVTVRANIAAITESDKFFINGSNWEGILGLAYAEIARPDDSLEPFFDSLVKQTHIPNIFSLQLCGAGFPLNQTEALASVGGSMIIGGIDHSLYTGSLWYTPIRREWYYEVIIVRVEINGQDLKMDCKEYNYDKSIVDSGTTNLRLPKKVFEAAVKSIKAASSTEKFPDGFWLGEQLVCWQAGTTPWNIFPVISLYLMGEVTNQSFRITILPQQYLRPVEDVATSQDDCYKFAVSQSSTGTVMGAVIMEGFYVVFDRARKRIGFAVSACHVHDEFRTAAVEGPFVTADMEDCGYNIPQTDESTGKPIPNPLLGLDST
B3: rat PC7 (protein)
chain: SIHFNDPKYPQQWHLNNRRSPGRDINVTGVWERNVTGRGVTVVVVDDGVEHTVQDIAPNYSPEGSYDLNSNDPDPMPHPDEENGNHHGTRCAGEIAAVPNNSFCAVGVAYGSRIAGIRVLDGPLTDSMEAVAFNKHYQINDIYSCSWGPDDDGKTVDGPHQLGKAALQHGVMAGRQGFGSIFVVASGNGGQHNDNCNYDGYANSIYTVTIGAVDEEGRMPFYAEECASMLAVTFSGGDKMLRSIVTTDWDLQKGTGCTEGHTGTSAAAPLAAGMIALMLQVRPCLTWRDVQHIIVFTATQYEDHRADWLTNEAGFSHSHQHGFGLLNAWRLVNAAKIWTSVPYLASYVSPMLKENKAVPRSPHSLEVLWNVSRTDLEMSGLKTLEHVAVTVSITHPRRGSLELKLFCPSGMMSLIGAPRSMDSDPNGFNDWTFSTVRCWGERARGVYRLVIRDVGDEPLQVGILQQWQLTLYGSTWSPVDIKDRQSLLESAMSGKYLHDDFTLPCPPGLKIPEEDGYSITPNTLKT
B4: [BACES]V5, soluble mouse BACE ending at Thr454 followed by a V5 epitope (protein)
chain: THLGIRLPLRSGLAGPPLGLRLPRETDEESEEPGRRGSFVEMVDNLRGKSGQGYYVEMTRGQPLTKLNILVDTGSSNFAVGAAPHPFLHRYYQRQLSSTYRDLRKGVYVPYTQGKWEGELGTDLVSIPHGPNVTVRANIAAITESDKFFINGSNWEGILGLAYAEIARPDDSLEPFFDSLVKQTHIPNIFSLQLCGAGFPLNQTEALASVGGSMIIGGIDHSLYTGSLWYTPIRREWYYEVIIVRVEINGQDLKMDCKEYNYDKSIVDSGTTNLRLPKKVFEAAVKSIKAASSTEKFPDGFWLGEQLVCWQAGTTPWNIFPVISLYLMGEVTNQSFRITILPQQYLRPVEDVATSQDDCYKFAVSQSSTGTVMGAVIMEGFYVVFDRARKRIGFAVSACHVHDEFRTAAVEGPFVTADMEDCGYNIPQTDESTGKPIPNPLLGLDST
B5: mouse PC5-A (protein)
chain: DYDLSHAQSTYFNDPKWPSMWYMHCSDNTHPCQSDMNIEGAWKRGYTGKNIVVTILDDGIERTHPDLMQNYDALASCDVNGNDLDPMPRYDASNENKHGTRCAGEVAATANNSHCTVGIAFNAKIGGVRMLDGDVTDMVEAKSVSYNPQHVHIYSASWGPDDDGKTVDGPAPLTRQAFENGVRMGRRGLGSVFVWASGNGGRSKDHCSCDGYTNSIYTISISSTAESGKKPWYLEECSSTLATTYSSGESYDKKIITTDLRQRCTDNHTGTSASAPMAAGIIALALEANPFLTWRDVQHVIVRTSRAGHLNANDWKTNAAGFKVSHLYGFGLMDAEAMVMEAEKWTTVPQQHVCVESTDRQIKTIRPNSAVRSIYKASGCSDNPNHHVNYLEHVVVRITITHPRRGDLAIYLTSPSGTRSQLLANRLFDHSMEGFKNWEFMTIHCWGERAAGDWVLEVYDTPSQLRNFKTPGKLKEWSLVLYGTSVQPYSPTNEFPKVERFRYSRVEDPTDDYGAEDYAGPCDPECSEVGCDGPGPDHCSDCLHYYYKLKNNTRICVSSCPPGHYHADKKRCRKCAPNCESCFGSHGNQCLSCKYGYFLNEETSSCVTQCPDGSYEDIKKNVCGKCSENCKACIGFHNCTECKGGLSLQGSRCSVTCEDGQFFNGHDCQPCHRFCATCSGAGADGCINCTEGYVMEEGRCVQSCSVSYYLDHSSEGGYKSCKRCDNSCLTCNGPGFKNCSSCPSGYLLDLGTCQMGAICKDATEESWAEGGFCMLVKKNNLCQRKVLQQLCCKTCTFQG

Tests used:
[1] = target: [proBACES]FG/V5, doubly tagged soluble form of mouse proBACE
[2] = target: T1, 20 aa synthetic peptide spanning the …
[3] = target: T2, PC cleavage site-spanning peptide of …

Protein | in vitro processing of the R45A mutant of proBACES, Western blot ([proBACES-R45A]FG/V5) | in vitro processing of proBACE into BACE, Western blot with FG or V5 antibodies [1] | β-secretase activity of affinity-purified proBACE on the synthetic peptide substrate [2] | cleavage of the peptide spanning the N-terminal furin-consensus site, RP-HPLC and MALDI-TOF [3] | cleavage of the peptide spanning the N-terminal furin-consensus site [3]
B1 | none of the PCs tested could cleave this form | which was superior to the abilities of PC5 and PACE4 to carry out this cleavage |  |  | 
B2 |  |  | the resulting material had no detectable activity unless first pre-incubated with furin |  | 
B3 | none of the PCs tested could cleave this form | PC7 is barely, if at all, able to perform this reaction |  | PC7 could barely cleave this sequence, even when a 10-fold excess (as assessed by pERTKR-MCA hydrolysis) of activity was employed | 
B4 |  |  |  |  | no detectable cleavage of this peptide was observed by either crude or partially purified soluble BACE [BACES]V5 (not shown)
B5 | none of the PCs tested could cleave this form | which was superior to the abilities of PC5 and PACE4 to carry out this cleavage |  | The best processing rates were observed with furin and PC5 (not shown) | 
